Source: the supplement of paper PMC5998384

Tests used:
HeLa Kyoto [1] = test: solubility in G1/S (NP-40 vs SDS abundance) (log2 ratio); higher = more soluble; conditions: cell cycle stage: G1/S
HeLa Kyoto [2] = test: melting temperature (median over replicates), in situ; higher = more thermally stable
HeLa Kyoto [3] = test: solubility change mitosis vs G1/S (difference of NP-40 vs SDS log2 ratios) (log2 ratio difference); higher = more soluble in mitosis
HeLa Kyoto [4] = test: thermal stability score vs G1/S (z-score of summed log2 fold changes over temperatures); higher = more thermally stable than in G1/S
[5] = cell cycle stage: early G1 (4.5 h after nocodazole release)
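Throughout, for melting temperature (median over replicates), in situ: HeLa Kyoto cells synchronized by double thymidine or nocodazole block, proteins quantified by TMT10plex mass spectrometry, three independent biological replicates.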
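Throughout, for solubility change mitosis vs G1/S (difference of NP-40 vs SDS log2 ratios): synchronized HeLa Kyoto cells (double thymidine block for G1/S, nocodazole release for mitosis), protein amounts in NP-40 versus SDS lysates quantified by mass spectrometry, three biological replicates.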
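Throughout, for solubility in G1/S (NP-40 vs SDS abundance): HeLa Kyoto cells arrested at G1/S by double thymidine block, proteins quantified by TMT10plex mass spectrometry in mild NP-40 versus SDS extracts, three biological replicates.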
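Throughout, for thermal stability score vs G1/S (z-score of summed log2 fold changes over temperatures): synchronized HeLa Kyoto cells, proteins quantified by TMT10plex mass spectrometry, three biological replicates, mitosis taken 0.5 h after nocodazole release, G1/S directly after double thymidine block.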

Sequence | solubility in G1/S (log2) (HeLa Kyoto [1]) | melting temperature (HeLa Kyoto [2]; cell cycle stage: G1/S) | melting temperature (HeLa Kyoto [2]; cell cycle stage: mitosis) | solubility change mitosis (log2) (HeLa Kyoto [3]) | thermal stability score (HeLa Kyoto [4]; [5]) | thermal stability score (HeLa Kyoto [4]; cell cycle stage: mitosis)
MATEGMILTNHDHQIRVGVLTVSDSCFRNLAEDRSGINLKDLVQDPSLLGGTISAYKIVPDEIEEIKETLIDWCDEKELNLILTTGGTGFAPRDVTPEATKEVIEREAPGMALAMLMGSLNVTPLGMLSRPVCGIRGKTLIINLPGSKKGSQECFQFILPALPHAIDLLRDAIVKVKEVHDELEDLPSPPPPLSPPPTTSPHKQTEDKGVQCEEEEEEKKDSGVASTEDSSSSHITAAAIAAKIPDSIISRGVQVLPRDTASLSTTPSESPRAQATSRLSTASCPTPKVQSRCSSKENILRASHSAVDITKVARRHRMSPFPLTSMDKAFITVLEMTPVLGTEIINYRDGMGRVLAQDVYAKDNLPPFPASVKDGYAVRAADGPGDRFIIGESQAGEQPTQTVMPGQVMRVTTGAPIPCGADAVVQVEDTELIRESDDGTEELEVRILVQARPGQDIRPIGHDIKRGECVLAKGTHMGPSEIGLLATVGVTEVEVNKFPVVAVMSTGNELLNPEDDLLPGKIRDSNRSTLLATIQEHGYPTINLGIVGDNPDDLLNALNEGISRADVIITSGGVSMGEKDYLKQVLDIDLHAQIHFGRVFMKPGLPTTFATLDIDGVRKIIFALPGNPVSAVVTCNLFVVPALRKMQGILDPRPTIIKARLSCDVKLDPRPEYHRCILTWHHQEPLPWAQSTGNQMSSRLMSMRSANGLLMLPPKTEQYVELHKGEVVDVMVIGRL [GPHN] | 0.226 | 55.6 °C | 54.6 °C | -0.057 | -0.16 | -1.19
MSNVSEERRKRQQNIKEGLQFIQSPLSYPGTQEQYAVYLRALVRNLFNEGNDVYREHDWNNSISQYTEALNIADYAKSEEILIPKEIIEKLYINRIACYSNMGFHDKVLEDCNIVLSLNASNCKALYRKSKALSDLGRYKKAYDAVAKCSLAVPQDEHVIKLTQELAQKLGFKIRKAYVRAELSLKSVPGDGATKALNHSVEDIEPDLLTPRQEAVPVVSLPAPSFSHEVGSELASVPVMPLTSILPLQVEESALPSAVLANGGKMPFTMPEAFLDDGDMVLGDELDDLLDSAPETNETVMPSALVRGPLQTASVSPSMPFSASLLGTLPIGARYAPPPSFSEFYPPLTSSLEDFCSSLNSFSMSESKRDLSTSTSREGTPLNNSNSSLLLMNGPGSLFASENFLGISSQPRNDFGNFFGSAVTKPSSSVTPRHPLEGTHELRQACQICFVKSGPKLMDFTYHANIDHKCKKDILIGRIKNVEDKSWKKIRPRPTKTNYEGPYYICKDVAAEEECRYSGHCTFAYCQEEIDVWTLERKGAFSREAFFGGNGKINLTVFKLLQEHLGEFIFLCEKCFDHKPRMISKRNKDNSTACSHPVTKHEFEDNKCLVHILRETTVKYSKIRSFHGQCQLDLCRHEVRYGCLREDECFYAHSLVELKVWIMQNETGISHDAIAQESKRYWQNLEANVPGAQVLGNQIMPGFLNMKIKFVCAQCLRNGQVIEPDKNRKYCSAKARHSWTKDRRAMRVMSIERKKWMNIRPLPTKKQMPLQFDLCNHIASGKKCQYVGNCSFAHSPEEREVWTYMKENGIQDMEQFYELWLKSQKNEKSEDIASQSNKENGKQIHMPTDYAEVTVDFHCWMCGKNCNSEKQWQGHISSEKHKEKVFHTEDDQYCWQHRFPTGYFSICDRYMNGTCPEGNSCKFAHGNAELHEWEERRDALKMKLNKARKDHLIGPNDNDFGKYSFLFKDLN [ZC3H7A] | -0.49 | 48.5 °C | 47.7 °C | 0.169 | 0.548 | 2.36
MEMEQEKMTMNKELSPDAAAYCCSACHGDETWSYNHPIRGRAKSRSLSASPALGSTKEFRRTRSLHGPCPVTTFGPKACVLQNPQTIMHIQDPASQRLTWNKSPKSVLVIKKMRDASLLQPFKELCTHLMEENMIVYVEKKVLEDPAIASDESFGAVKKKFCTFREDYDDISNQIDFIICLGGDGTLLYASSLFQGSVPPVMAFHLGSLGFLTPFSFENFQSQVTQVIEGNAAVVLRSRLKVRVVKELRGKKTAVHNGLGENGSQAAGLDMDVGKQAMQYQVLNEVVIDRGPSSYLSNVDVYLDGHLITTVQGDGVIVSTPTGSTAYAAAAGASMIHPNVPAIMITPICPHSLSFRPIVVPAGVELKIMLSPEARNTAWVSFDGRKRQEIRHGDSISITTSCYPLPSICVRDPVSDWFESLAQCLHWNVRKKQAHFEEEEEEEEEG [NADK] | 0.208 | 61.1 °C | 59.2 °C | 0.129 | -6.99 | -2.68
MAAVQVVGSWPSVQPREAPREAIPERGNGFRLLSARLCALRPDDSSSARTEIHLLFDQLISENYSEGSGVAPEDVSALLVQACRLVPLNQNHLVSKVSQLIHHLLNRLQVIVDEQHLDFLLAYTISAIHQCSSWTHREILQALAALVYCNGSKCQKYLPELLGNTGLLMKLSDLAQSDPEVRRAAVHCMANLCLSVPGQPYLEEPYQNVCFQAFLTILQSPKSSDMDDITFCMLLQNALKGIQSLLNGGRMKLTQTDELGALLAVLKKFMFHGLPGLNIEMPTVLYPTPLPQYDGRTPIKPQQSESSASRPTLNKKKKSKVKPKKIQQGEEEEKESSGEIEAAPVTGTGRVNLHEGNTWCPSSLGVQSLPLDGSGAAEKDGVSSSFSSSSWKRVSSSESDFSDAEGGMQSKMRSYQAKVRQGALVCFLSTIKSIEKKVLYGYWSAFIPDTPELGSPQSVSLMTLTLKDPSPKTRACALQVLSAILEGSKQFLSVAEDTSDHRRAFTPFSVMIACSIRELHRCLLLALVAESSSQTVTQIIKCLANLVSNAPYDRLKLSLLTKVWNQIKPYIRHKDVNVRVSSLTLLGAIVSTHAPLPEVQLLLQQPCSSGLGNSNSATPHLSPPDWWKKAPAGPSLEETSVSSPKGSSEPCWLIRLCISIVVLPKEDSCSGSDAGSAAGSTYEPSPMRLEALQVLTLLARGYFSMTQAYLMELGEVICKCMGEADPSIQLHGAKLLEELGTGLIQQYKPDSTAAPDQRAPVFLVVMFWTMMLNGPLPRALQNSEHPTLQASACDALSSILPEAFSNLPNDRQMLCITVLLGLNDSKNRLVKAATSRALGVYVLFPCLRQDVIFVADAANAILMSLEDKSLNVRAKAAWSLGNLTDTLIVNMETPDPSFQEEFSGLLLLKMLRSAIEASKDKDKVKSNAVRALGNLLHFLQPSHIEKPTFAEIIEESIQALISTVLTEAAMKVRWNACYAMGNVFKNPALPLGTAPWTSQAYNALTSVVTSCKNFKVRIRSAAALSVPGKREQYGSVDQYARIWNALVTALQKSEDTIDFLEFKYCVSLRTQICQALIHLLSLASASDLPCMKETLELSGNMVQSYILQFLKSGAEGDDTGAPHSPQERDQMVRMALKHMGSIQAPTGDTARRAIMGFLEEILAVCFDSSGSQGALPGLTNQ [HEATR6] | 0.0502 | 50.5 °C | 50.1 °C | -0.216 | -0.697 | 0.141
MESVSCSAAAVRTGDMESQRDLSLVPERLQRREQERQLEVERRKQKRQNQEVEKENSHFFVATFVRERAAVEELLERAESVERLEEAASRLQGLQKLINDSVFFLAAYDLRQGQEALARLQAALAERRRGLQPKKRFAFKTRGKDAASSTKVDAAPGIPPAVESIQDSPLPKKAEGDLGPSWVCGFSNLESQVLEKRASELHQRDVLLTELSNCTVRLYGNPNTLRLTKAHSCKLLCGPVSTSVFLEDCSDCVLAVACQQLRIHSTKDTRIFLQVTSRAIVEDCSGIQFAPYTWSYPEIDKDFESSGLDRSKNNWNDVDDFNWLARDMASPNWSILPEEERNIQWD [TBCC] | 0.242 | 51.8 °C | 52.4 °C | -0.152 | 0.786 | 0.503
MSGFSTEERAAPFSLEYRVFLKNEKGQYISPFHDIPIYADKDVFHMVVEVPRWSNAKMEIATKDPLNPIKQDVKKGKLRYVANLFPYKGYIWNYGAIPQTWEDPGHNDKHTGCCGDNDPIDVCEIGSKVCARGEIIGVKVLGILAMIDEGETDWKVIAINVDDPDAANYNDINDVKRLKPGYLEATVDWFRRYKVPDGKPENEFAFNAEFKDKDFAIDIIKSTHDHWKALVTKKTNGKGISCMNTTLSESPFKCDPDAARAIVDALPPPCESACTVPTDVDKWFHHQKN [PPA1] | 0.43 | 54.1 °C | 54.2 °C | 0.0519 | 0.184 | -1.97
MANMQGLVERLERAVSRLESLSAESHRPPGNCGEVNGVIAGVAPSVEAFDKLMDSMVAEFLKNSRILAGDVETHAEMVHSAFQAQRAFLLMASQYQQPHENDVAALLKPISEKIQEIQTFRERNRGSNMFNHLSAVSESIPALGWIAVSPKPGPYVKEMNDAATFYTNRVLKDYKHSDLRHVDWVKSYLNIWSELQAYIKEHHTTGLTWSKTGPVASTVSAFSVLSSGPGLPPPPPPLPPPGPPPLFENEGKKEESSPSRSALFAQLNQGEAITKGLRHVTDDQKTYKNPSLRAQGGQTQSPTKSHTPSPTSPKSYPSQKHAPVLELEGKKWRVEYQEDRNDLVISETELKQVAYIFKCEKSTIQIKGKVNSIIIDNCKKLGLVFDNVVGIVEVINSQDIQIQVMGRVPTISINKTEGCHIYLSEDALDCEIVSAKSSEMNILIPQDGDYREFPIPEQFKTAWDGSKLITEPAEIMA [CAP2] | 0.136 | 51.3 °C | 50.3 °C | -0.179 | -1.54 | -2.12
MERPLCSHLCSCLAMLALLSPLSLAQYDSWPHYPEYFQQPAPEYHQPQAPANVAKIQLRLAGQKRKHSEGRVEVYYDGQWGTVCDDDFSIHAAHVVCRELGYVEAKSWTASSSYGKGEGPIWLDNLHCTGNEATLAACTSNGWGVTDCKHTEDVGVVCSDKRIPGFKFDNSLINQIENLNIQVEDIRIRAILSTYRKRTPVMEGYVEVKEGKTWKQICDKHWTAKNSRVVCGMFGFPGERTYNTKVYKMFASRRKQRYWPFSMDCTGTEAHISSCKLGPQVSLDPMKNVTCENGLPAVVSCVPGQVFSPDGPSRFRKAYKPEQPLVRLRGGAYIGEGRVEVLKNGEWGTVCDDKWDLVSASVVCRELGFGSAKEAVTGSRLGQGIGPIHLNEIQCTGNEKSIIDCKFNAESQGCNHEEDAGVRCNTPAMGLQKKLRLNGGRNPYEGRVEVLVERNGSLVWGMVCGQNWGIVEAMVVCRQLGLGFASNAFQETWYWHGDVNSNKVVMSGVKCSGTELSLAHCRHDGEDVACPQGGVQYGAGVACSETAPDLVLNAEMVQQTTYLEDRPMFMLQCAMEENCLSASAAQTDPTTGYRRLLRFSSQIHNNGQSDFRPKNGRHAWIWHDCHRHYHSMEVFTHYDLLNLNGTKVAEGHKASFCLEDTECEGDIQKNYECANFGDQGITMGCWDMYRHDIDCQWVDITDVPPGDYLFQVVINPNFEVAESDYSNNIMKCRSRYDGHRIWMYNCHIGGSFSEETEKKFEHFSGLLNNQLSPQ [LOXL2] | -0.152 | 54.3 °C | 54.7 °C | -0.173 | 2.38 | 4.28
MAAAAGMLLLGLLQAGGSVLGQAMEKVTGGNLLSMLLIACAFTLSLVYLIRLAAGHLVQLPAGVKSPPYIFSPIPFLGHAIAFGKSPIEFLENAYEKYGPVFSFTMVGKTFTYLLGSDAAALLFNSKNEDLNAEDVYSRLTTPVFGKGVAYDVPNPVFLEQKKMLKSGLNIAHFKQHVSIIEKETKEYFESWGESGEKNVFEALSELIILTASHCLHGKEIRSQLNEKVAQLYADLDGGFSHAAWLLPGWLPLPSFRRRDRAHREIKDIFYKAIQKRRQSQEKIDDILQTLLDATYKDGRPLTDDEVAGMLIGLLLAGQHTSSTTSAWMGFFLARDKTLQKKCYLEQKTVCGENLPPLTYDQLKDLNLLDRCIKETLRLRPPIMIMMRMARTPQTVAGYTIPPGHQVCVSPTVNQRLKDSWVERLDFNPDRYLQDNPASGEKFAYVPFGAGRHRCIGENFAYVQIKTIWSTMLRLYEFDLIDGYFPTVNYTTMIHTPENPVIRYKRRSK [CYP51A1] | -0.38 | 48.4 °C | 50 °C | 0.0784 | 2.55 | 3.17
